Experimental findings from patent US20160237156A1 (CALIFORNIA INSTITUTE FOR BIOMEDICAL RESEARCH, published 2016) are described below.

Assay [1] has as its target T1, SNAP-tag-CXCR4 (Tag-lite labeled CXCR4 cells, Cisbio Bioassays) (UniProt P61073 1-352, Tag-lite label on the SNAP-tag).
T1 construct: whole, on cells; Bought labelled cells; also called Tag-lite CXCR4 receptor; labeled SNAP-tag-CXCR4; not shown: SNAP-tag of the bought Tag-lite cells
Put plainly: Tag-lite HTRF competition with 50 nM fluorescent SDF-1 on Tag-lite labeled CXCR4 cells. The procedure: (§1) Briefly, 10⁶ Tag-lite labeled CXCR4 cells were thawed at 37° C., centrifuged for 5 min at 1200 g, and re-suspended in 2.7 ml 1×Tag-lite buffer after removal of supernatant.
On the technique in general: TR-FRET usually uses a lanthanide donor and a delayed reading to cut background.

The target in assay [2] is T1, SNAP-tag-CXCR4 (Tag-lite labeled CXCR4 …). Put plainly: Tag-lite HTRF competition with 50 nM fluorescent SDF-1, Cheng-Prusoff. The procedure: as §1
For the next assay, the target named is CXCR4 (human, UniProt P61073 1-352). Put plainly: cell-based or functional assay.
Assay [3] has as its target T2, Human neutrophil elastase (Elastin Products Company, Inc.) (human, UniProt P08246 30-247, limits assumed).
T2 sequence (looked up): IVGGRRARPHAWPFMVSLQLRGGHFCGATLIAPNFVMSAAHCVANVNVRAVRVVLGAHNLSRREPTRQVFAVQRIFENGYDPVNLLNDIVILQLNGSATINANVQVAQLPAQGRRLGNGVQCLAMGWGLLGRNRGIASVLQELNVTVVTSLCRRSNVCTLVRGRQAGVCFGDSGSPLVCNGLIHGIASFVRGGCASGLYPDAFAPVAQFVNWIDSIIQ
Put plainly: elastase inhibition assay with fluorogenic substrate MeOSuc-AAPV-AMC (Example 28); y axis read as residual activity.

T1 sequence (P61073 whole entry): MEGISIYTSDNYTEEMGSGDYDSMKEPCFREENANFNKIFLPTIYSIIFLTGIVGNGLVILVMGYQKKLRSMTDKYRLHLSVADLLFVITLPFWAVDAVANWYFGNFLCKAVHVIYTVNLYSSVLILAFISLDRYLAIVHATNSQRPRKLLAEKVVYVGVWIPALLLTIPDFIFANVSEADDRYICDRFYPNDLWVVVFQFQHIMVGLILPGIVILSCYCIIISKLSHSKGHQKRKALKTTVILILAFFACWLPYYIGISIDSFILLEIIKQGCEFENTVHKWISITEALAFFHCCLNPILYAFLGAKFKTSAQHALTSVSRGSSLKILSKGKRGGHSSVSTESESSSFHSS
Chain of CXCR4 (P61073 whole entry): as above

B1: trastuzumab-beta BCCX2 HC long (antibody, human IgG1, kappa, V domains shown)
VH: EVQLVESGGGLVQPGGSLRLSCAASGFNIKDTYIHWVRQAPGKGLEWVARIYPTNGYTRYADSVKGRFTISADTSKNTAYLQMNSLRAEDTAVYYCSRETKKYQSYRKCRGGRRWCYQKSYTYNYEDYWGQGTLVTVSS
VL: not shown
notes: also called HLCX
Regarding B1, the half-maximal inhibitory concentration (IC50) in assay [1] stood at 9.36 nM. Further, the Ki in assay [2] is 2.07 nM.

B2: BLV1H12-beta BCCX2 HC 4 IgG (antibody, V domains shown)
VH: ASGFSLSDKAVGWVRQAPGKALEWLGSIDETKKYQSYRKCRGGRRWCYQKSYTYNYETGYNPGLKSRLSITKDNSKSQVSLSVSSVTTEDSATYYCTSVHQGGGGSWHVDVWGQGLLVTVSS
VL: QAVLNQPSSVSGSLGQRVSITCSGSSSNVGNGYVSWYQLIPGSAPRTLIYGDTSRASGVPDRFSGSRSGNTATLTISSLQAEDEADYFCASAEDSSSNAVFGSGTTLTVLG
notes: Peptide grafted into CDRH2; also called bAb-AC4; BVL1H12-beta BCCX2 HC 4
In assay [1], B2 yielded an IC50 of 4.16 nM. The molecule also had a Ki in assay [2] of 0.92 nM. Also, in the assay with CXCR4, the “inhibition of SDF-1 induced migration of Ramos cells, EC50” value stood at 3.2 nM.

B3: BLV1H12-beta BCCX2 HC 3 IgG (antibody, V domains shown)
VH: QVQLRESGPSLVKPSQTLSLTCTASGFSLSDKAVGWVRQAPGKALEWLGSIDTGGNTGYNPGLKSRLSITKDNSKSQVSLSVSSVTTEDSATYYCTSVHQETKKYQSYRKCRGGNGRRWCYQKSYTYNYEWHVDVWGQGLLVTVSS
VL: QAVLNQPSSVSGSLGQRVSITCSGSSSNVGNGYVSWYQLIPGSAPRTLIYGDTSRASGVPDRFSGSRSGNTATLTISSLQAEDEADYFCASAEDSSSNAVFGSGTTLTVLG
notes: Bovine-human chimera with human IgG1 Fc; also called bAb-AC3
Take B3: the IC50 in assay [1] is 89.3 nM. Moreover, the Ki in assay [2] stood at 19.8 nM.

B4: BLV1H12-beta BCCX2 HC 2 IgG (antibody, V domains shown)
VH: QVQLRESGPSLVKPSQTLSLTCTASGFSLSDKAVGWVRQAPGKALEWLGSIDTGGNTGYNPGLKSRLSITKDNSKSQVSLSVSSVTTEDSATYYCTSVHQETKKYQSYRKCRGPRRWCYQKSYTYNYEWHVDVWGQGLLVTVSS
VL: QAVLNQPSSVSGSLGQRVSITCSGSSSNVGNGYVSWYQLIPGSAPRTLIYGDTSRASGVPDRFSGSRSGNTATLTISSLQAEDEADYFCASAEDSSSNAVFGSGTTLTVLG
notes: Bovine-human chimera with human IgG1 Fc; also called bAb-AC2
As to B4, the IC50 in assay [1] worked out at 24.4 nM. Besides, the Ki in assay [2] worked out at 5.39 nM.

B5: Human BVK-beta HEI HC 6 (Fab, V domains shown)
VH: QVQLQESGPGLVRPSQTLSLTCTVSGFSLTGYGVNWVRQPPGRGLEWIGMIWGDGNTDYNSALKSRVTMLKDTSKNQFSLRLSSVTAADTAVYYCTSVHQEMCTASIPPQCYEWHVDVWGQGLLVTVSS
VL: DIQMTQSPSSLSASVGDRVTITCRASGNIHNYLAWYQQKPGKAPKLLIYYTTTLADGVPSRFSGSGSGTDYTFTISSLQPEDIATYYCQHFWSTPRTFGQGTKVEIKR
notes: also called HEI fusion protein
As for B5, the binding result in assay [3] is recorded as “binds”.

B6: Human BVK-beta HEI HC 9 (Fab, V domains shown)
VH: QVQLQESGPGLVRPSQTLSLTCTVSGFSLTGYGVNWVRQPPGRGLEWIGMIWGDGNTDYNSALKSRVTMLKDTSKNQFSLRLSSVTAADTAVYYCTSVHQETKKMCTASIPPQCYYNYEWHVDVWGQGLLVTVSS
VL: DIQMTQSPSSLSASVGDRVTITCRASGNIHNYLAWYQQKPGKAPKLLIYYTTTLADGVPSRFSGSGSGTDYTFTISSLQPEDIATYYCQHFWSTPRTFGQGTKVEIKR
notes: as for B5
With B6, in assay [3], the “IC50 (read off the curve)” value is about 40 nM.

B7: Human BVK-beta HEI HC 8 (Fab, V domains shown)
VH: QVQLQESGPGLVRPSQTLSLTCTVSGFSLTGYGVNWVRQPPGRGLEWIGMIWGDGNTDYNSALKSRVTMLKDTSKNQFSLRLSSVTAADTAVYYCTSVHQETKMCTASIPPQCYNYEWHVDVWGQGLLVTVSS
VL: DIQMTQSPSSLSASVGDRVTITCRASGNIHNYLAWYQQKPGKAPKLLIYYTTTLADGVPSRFSGSGSGTDYTFTISSLQPEDIATYYCQHFWSTPRTFGQGTKVEIKR
notes: as for B5
For B7, the binding result in assay [3] is given as “binds”.

B8: trastuzumab-beta BCCX2 HC medium (antibody, human IgG1, kappa, V domains shown)
VH: EVQLVESGGGLVQPGGSLRLSCAASGFNIKDTYIHWVRQAPGKGLEWVARIYPTNGYTRYADSVKGRFTISADTSKNTAYLQMNSLRAEDTAVYYCSRETKKYRKCRGGRRWCYQKYNYEDYWGQGTLVTVSS
VL: not shown
notes: also called HMCX
B8 came in with a half-inhibitory concentration (IC50) in assay [1] of 113 nM. This molecule gave a Ki in assay [2] of 25.1 nM.

One may read the IC50 as the concentration needed to halve the response being measured. A low value points to inhibition by little substance. As usually defined, the Ki is the equilibrium dissociation constant of an inhibitor or competing ligand from its target. Low readings indicate higher affinity, high ones lower affinity.
